Results from US12083134B2, “Anacardic acid for neural repair” (Vanderbilt University, priority 2018, dated 2024).

Experiments:
[1] = test system: MBP, Mog, Plp, Purα, Sox10, Sp-1 in OPCs; experiment: qRT-PCR of myelin genes and MBP promoter transcription elements in OPCs cultured with IL-33; format: cell-based, rat
Source text: (§1) FIG. 7A provides Western blot analysis of MPB expression in OPC cultures treated with IL-33. FIG. 7B provides qRT-PCR analysis showing the gene expression of transcription elements that bind to the MPB promoter region and major myelin genes treated with IL-33. T3 is the thyroid hormone internal positive control.
(§2) The importance of IL-33 as an inducer of a number of myelin genes has been shown. […] The expression of MBP, myelin oligodendrocyte glycoprotein (Mog), and proteolipoprotien (Plp) along with mRNAs of Purα, Sox10, and Sp-1 in OPCs cultured with IL-33 was quantified. Purα, Sox10, and Sp-1 are transcription elements that bind to the promoter region of MBP to initiate MBP gene expression.

[2] = test system: OPCs; experiment: Maturation of OPCs cultured with IL-33 (O4 and MBP expressing cells); format: cell-based, rat
Source text: The graphs to the right show the quantitation of O4 and MBP.
The formation of CNS myelin is dependent on the differentiation and maturation of OPCs. The process of maturation is well recognized both in vitro and in vivo. Immature OPCs express the receptor for platelet derived growth factor (PDGFR) and also express proteins that are recognized by antibody A2B5, anti O4, and anti Olig2 antibodies. As oligodendrocytes mature they lose their reactivity to A2B5, PDGFR, and Olig 2 and they begin to express myelin proteins including MBP. The degree of maturation can be assessed by determining the percentage of cells expressing early lineage markers such as O4 and the later markers such as MBP. The expression of O4 and MBP in OPCs cultured for 4 and 14 days in the presence or absence of IL-33 was determined. […] The increase seen with IL-33 was similar to that seen with AA.

[3] = test system: MBP in OPCs; experiment: Western blot of MBP expression in OPC cultures treated with IL-33; format: cell-based, rat; settings: OPCs treated with IL-33
Source text: as §1, §2

[4] = test system: dorsal root ganglia-OPC co-cultures; experiment: In vitro myelination of axons in dorsal root ganglia-OPC co-cultures with IL-33; format: cell-based; settings: DRG-OPC co-cultures, rat rIL-33 10 ng/ml, 16 days
Experimental: FIG. 9 provides images showing the myelination of dorsal root ganglion axons. The arrows point to the longer segments of myelinated internodes in cultures with added IL-33 (20×).
In preliminary studies, in vitro myelination of axons in the presence of IL-33 using dorsal root ganglia-OPC co-cultures was examined. Dorsal root ganglions (DRGs) were dissected from postnatal day 2 (P2) rat pups and cultured by established methods. Once the OPCs attached to the plates, they were treated with rat rIL-33 (10 ng/ml) for 16 days. At the end of the experiment, cells were stained with tubulin β for axons and MBP for myelin forming oligodendrocytes. Quantitation of myelin in axons was done using image analysis and the amount of myelin around the axons was determined. […] When compared to vehicle treated controls, there was an 18% increase in MBP in cultures treated with IL-33.

B1: IL-33: recombinant cytokine IL-33 (rat rIL-33) added exogenously to OPC cultures (protein, UniProt Q66H70 1-264, looked up)
Interleukin-33: MRPRMKYSNSKISPAKCDSTSGRALVPPCKITRSQQKTKDICHVYCMRLRSGLTIRKETCYFGKEPAKRYSLKSGSKHEGRLSTCLPDSRKRSLLGSIQAFAASVDTLSIQGTSLLTESCALSTYNDQSVSFVLENGCYVINVEDCGKNQEKDKVLLRYYESSFPAQSGDGVDGKKLMVNMSPIKDTDIWLNANDKDYSVELQKGDVSPPDQAFFVLHKKSSDFVSFECKNLPGTYIGVKDNQLALVEENDESCNNIMFKLSKM
induced expression of MBP [1]: 4.5 fold | induced expression of Mog [1]: 3.8 fold | induced expression of PLP [1]: 2.3 fold | induced expression of Purα [1]: 2.1 fold | induced expression of Sox10 [1]: 3.9 fold | induced expression of Sp1 [1]: 2.2 fold | increase in O4 expressing cells vs normal growth medium ([2]; OPCs cultured with IL-33, 4 days): 2.3 fold | formation of mature oligodendrocytes expressing MBP ([2]; OPCs cultured with IL-33, 14 days): increased formation of mature oligodendrocytes | induction of MBP [3]: 26% | increase in MBP vs vehicle treated controls [4]: 18%
